US20050282740A1
Like-named read-outs stand apart in the source and are kept apart here.

How the values were obtained:
[1] = target: proteins from 32P or 35S-labeled HeLa cell lysates; assay: GST pull-down from labeled HeLa lysates pretreated with CIP, PP1 and PP2A
[2] = target: EQPLpTPVTDL; assay: fluorescence anisotropy, GST-WW-domain on fluorescein-labelled peptide
[3] = target: WFYpSPFLE; assay: as above
[4] = target: WFYpSPFLE; assay: fluorescence anisotropy; low affinity site
[5] = target: WFYpSPFLE; assay: fluorescence anisotropy; high affinity site
[6] = target: tau peptide (pT-231), SEQ ID NO: 20; assay: ELISA on tau peptide
[7] = target: tau peptide (pT-231), SEQ ID NO: 20; assay: ELISA on tau peptides
[8] = target: tau peptide (pT-231), SEQ ID NO: 20; assay: ELISA on tau peptides; remark: listed apart in the source
[9] = target: WFYpSPFLE; assay: fluorescence anisotropy with fluorescein labeled Pintide; high affinity site
[10] = target: Amyloid Precursor Protein Peptide … (pT-668); assay: ELISA on amyloid precursor protein peptide; binder not labelled in the row, taken as Pin1
[11] = target: WFYpSPFLE; assay: fluorescence anisotropy; Table 2 prints 1.0 for this pair
[12] = target: tau peptide … (pT-231), SEQ ID NO: 29; assay: ELISA on tau peptide
[13] = target: GST-Pin1 (human) (UniProt Q13526); assay: competition with MPM-2 antigens for GST-Pin1, pull-down and MPM-2 immunoblot
[14] = target: GST-WW-domain of Pin1 (human) (UniProt Q13526); assay: competition with MPM-2 antigens for GST-WW-domain of Pin1, pull-down and MPM-2 immunoblot

## GST-Nedd4 WW-domain-1 (from UniProt P46935 249-282)
[1]
  fold reduction of binding after pretreatment of lysates with Ser phosphatases: 10 fold

## GST-Nedd4 WW-domain-2 (from UniProt P46935 405-438)
[2]
  Kd: 20000 nM
[3]
  Kd: 10000 nM
[1]
  fold reduction of binding after pretreatment of lysates with Ser phosphatases: 10 fold

## GST-Pin1 (from UniProt Q13526 1-163) (enzyme)
[4]
  Kd: 13000 nM
[5]
  Kd: 1200 nM

## GST-Pin1^R14A (from UniProt Q13526 1-163) (enzyme)
[4]
  Kd: 13500 nM
[5]
  Kd: 2000 nM

## GST-Pin1^S16A (from UniProt Q13526 1-163) (enzyme)
[4]
  Kd: 10500 nM
[5]
  Kd: 1200 nM

## GST-Pin1^S16E (from UniProt Q13526 1-163) (enzyme)
[4]
  Kd: 10500 nM

## GST-Pin1^S18E (from UniProt Q13526 1-163) (enzyme)
[4]
  Kd: 12000 nM
[5]
  Kd: 1000 nM

## GST-Pin1^W34A (from UniProt Q13526 1-163) (enzyme)
[4]
  Kd: 14000 nM

## GST-Pin1^Y23A (from UniProt P08515 1-218; Q13526 1-163) (enzyme)
[4]
  Kd: 13500 nM

## GST-WW-domain of Pin1 (from UniProt Q13526 1-54)
[2]
  Kd: 2200 nM
[3]
  Kd: 1000 nM

## Pin1 (from UniProt Q13526 1-163) (enzyme)
[6]
  Binding (OD @ 405 nm): 1.46 OD 405 nm
[7]
  Kd: 25 nM
[8]
  Kd: 40 nM
[4]
  Kd: 11000 nM
[5]
  Kd: 1200 nM
[9]
  Kd: 1200 nM
[10]
  Binding (OD @ 405 nm): 1.81 OD 405 nm

## Pin1 PPIase domain (from UniProt Q13526 47-163) (enzyme)
[4]
  Kd: 15000 nM

## Pin1 WW-domain (from UniProt Q13526 1-54)
[5]
  Kd: 1000 nM
[11]
  Kd: 1200 nM

## Pin1^R14A (from UniProt Q13526 1-163) (enzyme)
[12]
  Binding (OD @ 405 nm): 1.3 OD 405 nm
[9]
  Kd: 2000 nM

## Pin1^S16A (from UniProt Q13526 1-163) (enzyme)
[9]
  Kd: 1200 nM

## Pin1^Y23F (from UniProt Q13526 1-163) (enzyme)
[9]
  Kd: 5000 nM

## Pintide (WFYpSPRLKK) (peptide)
[13]
  peptide concentration at which significant competition was detected: 50 µM
  peptide concentration of complete competition: 250 to 500 µM
[14]
  peptide concentration at which significant competition was detected: 50 µM
  peptide concentration of complete competition: 250 to 500 µM
